Here are results for one molecule from PMC12431856, “Synthetic ZFTA fusions pinpoint disordered protein domain acquisition as a mechanism of brain tumorigenesis”.

The data set has as its target ZFTA ZF1 (UniProt C9JLR9 81-172). Kind of data set: fluorescence polarization; FP: 25 mM citrate pH 5.6, 150 mM NaCl, 0.5 mM TCEP, 100 nM DNA, 15 nM-7.5 uM protein, 20 min, room temperature; NMR: same buffer with 5% D2O, 25 C. As to conditions: protein: recombinant; tags: none (His6-MBP removed by TEV); label: 5'-Cy5 on top strand; blunt. A general note: Polarisation of emitted light reports the rotation of a fluorescent probe.

Chain of ZFTA ZF1 (C9JLR9 81-172): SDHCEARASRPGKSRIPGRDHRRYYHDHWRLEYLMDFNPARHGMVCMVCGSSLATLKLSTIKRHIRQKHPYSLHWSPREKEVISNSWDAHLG

B1: Cy5 PLAGL motif DNA (dsDNA)
DNA 1: GATCCATGGCCCCATGGATG
DNA 2: CATCCATGGGGCCATGGATC
As for B1, the binding result is “binds”.
